Key:
[1] = target: A1T1-His6 (module 1 multi-domain construct of the nocardicin NRPS) (Nocardia uniformis subsp. tsuyamanensis ATCC 21806); assay: pull-down
[2] = target: A4T4-His6 (module 4 multi-domain construct of NocB) (Nocardia uniformis subsp. tsuyamanensis ATCC 21806); assay: pull-down

“MbtH family protein NocI (untagged) (natural protein)” showed a stoichiometry N [1] of 1 and a stoichiometry N [2] of 1.
